The sequences below were run on Escherichia coli TOP10 (assay: shrunken log2 fold change of peptide-encoding DNA abundance (4.5 h post-induction vs induction); higher = less antimicrobial activity (less host growth inhibition)). Details: time post-induction: 4.5 h; library: site-saturation at positions 5, 18, 19, 20.
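Note: peptides expressed intracellularly from a pBAD plasmid library in pooled LB shake-flask culture, induced with 0.3% L-arabinose, DNA abundance read by NGS, three biological replicates, DESeq2 with apeglm shrinkage.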

Row | Sequence | shrunken log2 fold change
1 | RRIRYRPPRLPRPRPRPDFTPRP | -0.0212
2 | RRIRYRPPRLPRPRPRPDHLPRP | -0.00968
3 | RRIRYRPPRLPRPRPRPDKIPRP | -0.155
4 | RRIRYRPPRLPRPRPRPDKVPRP | -0.102
5 | RRIRYRPPRLPRPRPRPDLAPRP | -0.344
6 | RRIRYRPPRLPRPRPRPDLTPRP | -0.0272
7 | RRIRYRPPRLPRPRPRPDMHPRP | -0.231
8 | RRIRYRPPRLPRPRPRPDNPPRP | -0.877
9 | RRIRYRPPRLPRPRPRPDPCPRP | -0.0185
10 | RRIRYRPPRLPRPRPRPDPVPRP | -0.0502
11 | RRIRYRPPRLPRPRPRPDPYPRP | -0.222
12 | RRIRYRPPRLPRPRPRPDRPPRP | -0.215
13 | RRIRYRPPRLPRPRPRPDSQPRP | -0.429
14 | RRIRYRPPRLPRPRPRPDTDPRP | -0.02
15 | RRIRYRPPRLPRPRPRPDTGPRP | -0.808
16 | RRIRYRPPRLPRPRPRPDTWPRP | -0.0135
17 | RRIRYRPPRLPRPRPRPDVAPRP | 0.105
18 | RRIRYRPPRLPRPRPRPDVWPRP | -0.194
19 | RRIRYRPPRLPRPRPRPDWHPRP | -0.32
20 | RRIRYRPPRLPRPRPRPDYIPRP | -0.0327
21 | RRIRYRPPRLPRPRPRPEAPPRP | -0.0405
22 | RRIRYRPPRLPRPRPRPECTPRP | 0.0109

Row | Sequence | shrunken log2 fold change
23 | RRIRYRPPRLPRPRPRPEDAPRP | -0.0333
24 | RRIRYRPPRLPRPRPRPEFMPRP | -0.0255
25 | RRIRYRPPRLPRPRPRPEGPPRP | 0.12
26 | RRIRYRPPRLPRPRPRPEIVPRP | -0.00224
27 | RRIRYRPPRLPRPRPRPEMKPRP | 0.206
28 | RRIRYRPPRLPRPRPRPEMQPRP | 0.057
29 | RRIRYRPPRLPRPRPRPEMRPRP | 0.0856
30 | RRIRYRPPRLPRPRPRPENPPRP | -0.382
31 | RRIRYRPPRLPRPRPRPEPCPRP | 0.189
32 | RRIRYRPPRLPRPRPRPEPMPRP | -0.0988
33 | RRIRYRPPRLPRPRPRPEQFPRP | -0.14
34 | RRIRYRPPRLPRPRPRPEQKPRP | 0.0039
35 | RRIRYRPPRLPRPRPRPERLPRP | -0.00207
36 | RRIRYRPPRLPRPRPRPERYPRP | 0.11
37 | RRIRYRPPRLPRPRPRPESFPRP | -0.0275
38 | RRIRYRPPRLPRPRPRPESVPRP | -0.316
39 | RRIRYRPPRLPRPRPRPETKPRP | -0.485
40 | RRIRYRPPRLPRPRPRPEVLPRP | -0.00228
41 | RRIRYRPPRLPRPRPRPEWIPRP | 0.0106
42 | RRIRYRPPRLPRPRPRPEYHPRP | -0.0883
43 | RRIRYRPPRLPRPRPRPEYKPRP | -0.856
44 | RRIRYRPPRLPRPRPRPFALPRP | -0.133

Row | Sequence | shrunken log2 fold change
45 | RRIRYRPPRLPRPRPRPFEAPRP | -0.886
46 | RRIRYRPPRLPRPRPRPFEEPRP | -0.0344
47 | RRIRYRPPRLPRPRPRPFEFPRP | -0.153
48 | RRIRYRPPRLPRPRPRPFELPRP | -0.529
49 | RRIRYRPPRLPRPRPRPFFIPRP | -1.11
50 | RRIRYRPPRLPRPRPRPFFTPRP | -0.675
51 | RRIRYRPPRLPRPRPRPFGCPRP | -0.139
52 | RRIRYRPPRLPRPRPRPFHPPRP | -0.146
53 | RRIRYRPPRLPRPRPRPFIEPRP | -1.2
54 | RRIRYRPPRLPRPRPRPFISPRP | -0.341
55 | RRIRYRPPRLPRPRPRPFKLPRP | -0.0907
56 | RRIRYRPPRLPRPRPRPFLNPRP | -0.369
57 | RRIRYRPPRLPRPRPRPFMEPRP | -0.0943
58 | RRIRYRPPRLPRPRPRPFMHPRP | -0.661
59 | RRIRYRPPRLPRPRPRPFMIPRP | -1.21
60 | RRIRYRPPRLPRPRPRPFPPPRP | -0.809
61 | RRIRYRPPRLPRPRPRPFQDPRP | -0.139
62 | RRIRYRPPRLPRPRPRPFQEPRP | -0.152
63 | RRIRYRPPRLPRPRPRPFRCPRP | 0.0856
64 | RRIRYRPPRLPRPRPRPFSEPRP | 0.41
65 | RRIRYRPPRLPRPRPRPFSFPRP | -0.35
66 | RRIRYRPPRLPRPRPRPFSGPRP | 0.0211

Row | Sequence | shrunken log2 fold change
67 | RRIRYRPPRLPRPRPRPFTKPRP | -0.184
68 | RRIRYRPPRLPRPRPRPFVHPRP | -1.49
69 | RRIRYRPPRLPRPRPRPFVRPRP | 0.00599
70 | RRIRYRPPRLPRPRPRPFVVPRP | -0.786
71 | RRIRYRPPRLPRPRPRPFVWPRP | 0.119
72 | RRIRYRPPRLPRPRPRPFWEPRP | 0.13
73 | RRIRYRPPRLPRPRPRPFWNPRP | -0.178
74 | RRIRYRPPRLPRPRPRPFYVPRP | -0.602
75 | RRIRYRPPRLPRPRPRPGCQPRP | 0.0142
76 | RRIRYRPPRLPRPRPRPGDLPRP | 0.0641
77 | RRIRYRPPRLPRPRPRPGGVPRP | -0.332
78 | RRIRYRPPRLPRPRPRPGHFPRP | -0.0316
79 | RRIRYRPPRLPRPRPRPGIMPRP | 0.0185
80 | RRIRYRPPRLPRPRPRPGLGPRP | -0.0488
81 | RRIRYRPPRLPRPRPRPGLNPRP | -0.489
82 | RRIRYRPPRLPRPRPRPGLSPRP | -0.439
83 | RRIRYRPPRLPRPRPRPGNCPRP | -0.152
84 | RRIRYRPPRLPRPRPRPGNPPRP | -0.377
85 | RRIRYRPPRLPRPRPRPGNSPRP | -0.0689
86 | RRIRYRPPRLPRPRPRPGPLPRP | -0.151
87 | RRIRYRPPRLPRPRPRPGRPPRP | 0.0326
88 | RRIRYRPPRLPRPRPRPGSKPRP | -0.0678

Row | Sequence | shrunken log2 fold change
89 | RRIRYRPPRLPRPRPRPGSPPRP | -0.0883
90 | RRIRYRPPRLPRPRPRPGVKPRP | -0.188
91 | RRIRYRPPRLPRPRPRPGYLPRP | -0.33
92 | RRIRYRPPRLPRPRPRPHELPRP | -0.00663
93 | RRIRYRPPRLPRPRPRPHGMPRP | -0.922
94 | RRIRYRPPRLPRPRPRPHHGPRP | 0.0431
95 | RRIRYRPPRLPRPRPRPHHIPRP | -0.356
96 | RRIRYRPPRLPRPRPRPHHLPRP | -0.329
97 | RRIRYRPPRLPRPRPRPHIPPRP | -0.452
98 | RRIRYRPPRLPRPRPRPHIQPRP | -1.03
99 | RRIRYRPPRLPRPRPRPHIRPRP | -0.206
100 | RRIRYRPPRLPRPRPRPHKLPRP | -0.188
101 | RRIRYRPPRLPRPRPRPHKNPRP | -1.06
102 | RRIRYRPPRLPRPRPRPHMGPRP | 3.73
103 | RRIRYRPPRLPRPRPRPHMNPRP | -1.2
104 | RRIRYRPPRLPRPRPRPHMRPRP | -0.02
105 | RRIRYRPPRLPRPRPRPHNEPRP | -0.675
106 | RRIRYRPPRLPRPRPRPHPCPRP | -0.125
107 | RRIRYRPPRLPRPRPRPHSWPRP | -0.69
108 | RRIRYRPPRLPRPRPRPHTRPRP | -0.494
109 | RRIRYRPPRLPRPRPRPHVCPRP | -0.358

From the supplement of paper PMC9112550, “Optimization of the antimicrobial peptide Bac7 by deep mutational scanning” (BMC Biology, 2022)
